For the test, the target named is Hepatitis B patients' plasma-derived HBsAg particles (HBV surface antigen, subviral particle of HBV). The test can be described thus: AlphaScreen. The note with it: parent: est. 1.3; read off a plot.

“Myr47 lipopeptide (HBV pre-S1 domain, myristoylated 2–48 peptide), biotinylated Ala11–15”: the response was 1.4 RLU (×10^6).
